Measured values reported in patent US20050148504A1, “Cysteine protease inhibitor” (priority 2002, published 2005).

Key:
papain [1] = biological target: papain (UniProt P00784); experiment: cell-based or functional assay
papain [2] = biological target: T1, papain (Carica papaya, UniProt P00784); experiment: cysteine protease inhibitory activity, Z-Phe-Arg-MCA fluorescence method (Barrett et al.), papain; format: biochemical; design: purchased Sigma Co., Ltd
T1 sequence (P00784 134-345): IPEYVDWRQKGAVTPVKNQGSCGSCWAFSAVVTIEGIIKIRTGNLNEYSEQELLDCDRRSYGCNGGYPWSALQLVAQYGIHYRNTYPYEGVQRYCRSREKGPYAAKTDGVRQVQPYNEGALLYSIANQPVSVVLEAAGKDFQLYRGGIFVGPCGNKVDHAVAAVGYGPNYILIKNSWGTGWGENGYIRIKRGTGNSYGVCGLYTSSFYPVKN
Procedure: Casein, a partial peptide of casein, or hydrolysate of casein which can be used for the present invention has inhibitory activity against cysteine proteases such as cathepsin B, L and papain. The cysteine protease inhibitory activity can be determined in accordance with the methods of Barrett et al (Methods in Enzymology, Vol. 80, pp. 535-561, 1981). For example, Z-Phe-Arg-MCA (Benzyloxycarbonyl-L-Phenylalanyl-L-Arginine4-Methyl-Coumaryl-7-Amide: final concentration of […]: manufactured by Peptide Institute, Inc.) is added as a substrate into a solution in which casein, a partial peptide and/or a hydrolysate of casein is dissolved in 0.1 M acetic acid buffer (pH 5.5), and then a cysteine protease (papain in the present Examples: manufactured by Sigma Co., Ltd.) solution (final concentration: 15 units/ml) is added and the whole solution is mixed to allow reaction at 37° C. for 10 minutes. After that, fluorescence intensity (excitation wavelength: 370 nm, emission wavelength: 460 nm) of AMC (7-Amino-4-Methyl-Coumarin) released from the digested substrate is measured with a fluorescence spectrometer (manufactured by Hitachi, Ltd.).
(§1) The inhibitory activity was measured with reference to the method by Barrett et al. (“Methods in Enzymology,” Vol. 80, p 535-561, 1981) as described below. Namely, Z-Phe-Arg-MCA (final concentration of […]: manufactured by Peptide Institute, Inc.) was added as a substrate to a solution containing bovine β-casein peptide mixture dissolved in a 0.1 M acetic acid buffer solution pH 5.5. Then, a cysteine protease (papain in the present test: manufactured by Sigma Co., Ltd.) solution (final concentration: 15 units/ml) was added, the whole solution was mixed and the reaction was carried out at 37° C. for 10 minutes. Subsequently, fluorescence intensity (excitation wavelength: 370 nm, emission wavelength: 460 nm) of AMC released from the digested substrate was measured with a fluorescence spectrometer (manufactured by Hitachi, Ltd.).
Z-Phe-Arg-MCA (final concentration of […]: manufactured by Peptide Institute, Inc.) was added as a substrate into a solution in which a test sample was dissolved in a 0.1 M acetic acid buffer (pH 5.5). Then, a papain solution (final concentration of 15 units/ml) as a cysteine protease solution was added and mixed, and the reaction was performed at 37° C. for 10 minutes. Subsequently, fluorescence intensity (excitation wavelength: 370 nm, emission wavelength: 460 nm) of AMC released from the digested substrate was measured with a fluorescence spectrometer (manufactured by Hitachi, Ltd.).

papain [3] = biological target: T1, papain; experiment: reverse zymography using papain (SDS-polyacrylamide gel containing gelatin); conditions: 12.5% SDS-polyacrylamide gel with 0.1% gelatin; papain 37° C. 10 hours; FIG. 1 lane 6
cathepsin B = cathepsin B (Homo sapiens, UniProt P07858); experiment: cysteine protease inhibitory activity, Z-Phe-Arg-MCA fluorescence method, cathepsin B; format: biochemical; conditions: concentration of 10^−4 M
Procedure: as §1
(§2) A spectrum of cysteine protease-inhibitory activity of a test sample was measured in the same way as that of measuring the cysteine protease-inhibitory activity described in the Test Example 3, using bovine β-casein as a test sample, and papain, cathepsin B and cathepsin L as cysteine proteases.

cathepsin L = cathepsin L (Homo sapiens, UniProt P07711); experiment: cysteine protease inhibitory activity, Z-Phe-Arg-MCA fluorescence method, cathepsin L; format: biochemical; conditions: concentration of 10^−4 M
Sequence of cathepsin L (P07711 114-333, species assumed): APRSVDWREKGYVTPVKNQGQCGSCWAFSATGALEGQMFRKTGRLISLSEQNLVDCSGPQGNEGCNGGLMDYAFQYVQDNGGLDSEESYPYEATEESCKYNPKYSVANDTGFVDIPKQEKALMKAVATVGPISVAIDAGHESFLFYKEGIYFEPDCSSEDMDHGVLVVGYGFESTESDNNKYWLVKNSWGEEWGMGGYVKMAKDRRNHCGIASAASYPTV
Procedure: as §1, §2

Molecule bovine α-casein has a concentration at which papain activity is almost inhibited (papain [1]) of 100 µM.

Molecule “bovine κ-casein (from UniProt P02668 22-190)” has a concentration at which papain is completely inhibited (papain [1]) of 10 µM.

In the case of “bovine κ-casein: bovine κ-casein used as a test sample”, the “inhibition of papain, in words” value (papain [2]; concentration of 10^−5 M) is reported as “completely inhibit”.

For “human β-casein peptide: synthesized peptide having amino acid numbers 133 to 151 of SEQ ID No. 1 (human β-casein) (LTDLENLHLPLPLLQPLMQ; sig_peptide (1)Oc(15) casein; listed as Homo Sapiens)”, the “inhibition of papain, in words” value (papain [2]; concentration of 10^−4 M) was “completely inhibits” and the “inhibition of protease activity of papain” value (papain [2]; concentration of 10^−5 M) was 65%.

“bovine β-casein peptide: peptide from Leu of 142th residue to His of 160th residue of bovine β-casein (SEQ ID No. 2) (LTDVENLHLPLPLLQSWMH; sig_peptide (1)Oc(15) casein; listed as Bos taurus)” was tested, and the “cysteine protease inhibitory activity (papain), in words” value (papain [2]; papain 15 units/ml, pH 5.5, 37° C. 10 minutes, concentration not given) was “having inhibitory activity”.

B1: bovine β-casein: β-casein derived from bovine, amino acid sequence of SEQ ID No. 2 (Swiss-Prot P02666) (protein, listed as Bos taurus)
chain: MKVLILACLVALALARELEELNVPGEIVESLSSSEESITRINKKIEKFQSEEQQQTEDELQDKIHPFAQTQSLVYPFPGPIPNSLPQNIPPLTQTPVVVPPFLQPEVMGVSKVKEAMAPKHKEMPFPKYPVEPFTESQSLTLTDVENLHLPLPLLQSWMHQPHQPLPPTVMFPPQSVLSLSQSKVLPVPQKAVPYPQRDMPIQAFLLYQEPVLGPVRGPFPIIV
modifications: sig_peptide (1)Oc(15) casein
For B1, the “band in reverse zymography using papain” value (papain [3]) was “positive band”, the “inhibition of protease activity of cathepsin B, in words” value (cathepsin B) was “almost inhibits” and the “inhibition of protease activity of cathepsin L, in words” value (cathepsin L) was “almost inhibits”. The “inhibition of papain, in words” value (papain [2]; concentration of 10^−5 M) was “completely inhibits” and the “inhibition of papain, in words” value (papain [2]; concentration of 10^−5 M, listed as β-casein) was “completely inhibit”.

B2: human β-casein: human β-casein purified by a conventional procedure, amino acid sequence of SEQ ID No. 1 (Swiss-Prot P05814) (protein, listed as Homo Sapiens)
chain: MKVLILACLVALALARETIESLSSSEESITEYKQKVEKVKHEDQQQGEDEHQDKIYPSFQPQPLIYPFVEPIPYGFLPQNILPLAQPAVVLPVPQPEIMEVPKAKDTVYTKGRVMPVLKSPTIPFFDPQIPKLTDLENLHLPLPLLQPLMQQVPQPIPQTLALPPQPLWSVPQPKVLPIPQQVVPYPQRAVPVQALLLNQELLLNPTHQIYPVTQPLAPVHNPISV
modifications: sig_peptide (1)Oc(15) casein
For B2, the “inhibition of papain, in words” value (papain [2]; concentration of 10^−5 M) was “almost completely inhibits”.
